Reference: paper PMC4613710, “A biophysical study on molecular physiology of the uncoupling proteins of the central nervous system” (Bioscience Reports, 2015)

B1: human uncoupling protein 4 (His6-ENLYFQG-hUCP4) (natural protein, UniProt O95847 1-323, looked up)
chain: MSVPEEEERLLPLTQRWPRASKFLLSGCAATVAELATFPLDLTKTRLQMQGEAALARLGDGARESAPYRGMVRTALGIIEEEGFLKLWQGVTPAIYRHVVYSGGRMVTYEHLREVVFGKSEDEHYPLWKSVIGGMMAGVIGQFLANPTDLVKVQMQMEGKRKLEGKPLRFRGVHHAFAKILAEGGIRGLWAGWVPNIQRAALVNMGDLTTYDTVKHYLVLNTPLEDNIMTHGLSSLCSGLVASILGTPADVIKSRIMNQPRDKQGRGLLYKSSTDCLIQAVQGEGFMSLYKGFLPSWLRMTPWSMVFWLTYEKIREMSGVSPF
notes: uncoupling protein 4 (UCP4), human; cDNA synthesized by GenScript, sub-cloned into pET26b(+); Tetramer is the predominant form in POPC liposomes without SDS; dimers and a few monomers at 83 mM SDS; also called neuronal UCP
B2: human uncoupling protein 2 (His6-ENLYFQG-hUCP2) (natural protein, UniProt P55851 1-309, looked up)
chain: MVGFKATDVPPTATVKFLGAGTAACIADLITFPLDTAKVRLQIQGESQGPVRATASAQYRGVMGTILTMVRTEGPRSLYNGLVAGLQRQMSFASVRIGLYDSVKQFYTKGSEHASIGSRLLAGSTTGALAVAVAQPTDVVKVRFQAQARAGGGRRYQSTVNAYKTIAREEGFRGLWKGTSPNVARNAIVNCAELVTYDLIKDALLKANLMTDDLPCHFTSAFGAGFCTTVIASPVDVVKTRYMNSALGQYSSAGHCALTMLQKEGPRAFYKGFMPSFLRLGSWNVVMFVTYEQLKRALMAACTSREAPF
notes: uncoupling protein 2 (UCP2), human; cDNA clone pET21a-UCP2 sub-cloned into pET26b(+); Tetramer is the predominant form in POPC liposomes without SDS; dimers and a few monomers at 83 mM SDS; PDB 2LCK is only viewed as a model of UCP2; also called neuronal UCP
B3: human uncoupling protein 5 (His6-ENLYFQG-hUCP5) (natural protein, UniProt O95258 1-325, looked up)
chain: MGIFPGIILIFLRVKFATAAVIVSGHQKSTTVSHEMSGLNWKPFVYGGLASIVAEFGTFPVDLTKTRLQVQGQSIDARFKEIKYRGMFHALFRICKEEGVLALYSGIAPALLRQASYGTIKIGIYQSLKRLFVERLEDETLLINMICGVVSGVISSTIANPTDVLKIRMQAQGSLFQGSMIGSFIDIYQQEGTRGLWRGVVPTAQRAAIVVGVELPVYDITKKHLILSGMMGDTILTHFVSSFTCGLAGALASNPVDVVRTRMMNQRAIVGHVDLYKGTVDGILKMWKHEGFFALYKGFWPNWLRLGPWNIIFFITYEQLKRLQI
notes: uncoupling protein 5 (UCP5), human; cDNA bought from A.T.C.C., sub-cloned into pET26b(+); Tetramer is the predominant form in POPC liposomes without SDS; dimers and a few monomers at 83 mM SDS; also called neuronal UCP

Molecular target: the molecule itself
Test: native gel or EMSA; semi-native PAGE (12% gel), UCP reconstituted in POPC liposomes titrated with SDS to 83 mM (about 40x CMC), Coomassie stain; bands identified by LC-MS/MS

Row | Protein | stoichiometry N
1 | B1 | 2
2 | B2 | 2
3 | B3 | 2

Molecular target: the molecule itself
Test: native gel or EMSA; semi-native PAGE (12% gel, 2 mM SDS in running buffer only), UCP reconstituted in POPC liposomes, loading buffer lacking SDS, Coomassie stain; bands identified by LC-MS/MS

Row | Protein | stoichiometry N
4 | B1 | 4
5 | B2 | 4
6 | B3 | 4

Molecular target: the molecule itself
Test: far-UV CD spectroscopy, SDS titration; UCP reconstituted in POPC liposomes titrated with SDS (0-83 mM); normalised theta208/theta222 against [SDS], Hill fit; K1/2 = [SDS] at 50% protein dissociation; tetramer to dimers

Row | Protein | CD K1/2 ([SDS] at 50% protein dissociation) [mM SDS]
7 | B1 | 1 ± 0.1
8 | B2 | 1.1 ± 0.1
9 | B3 | 1 ± 0.1

Molecular target: the molecule itself
Test: other fluorescence titration; Trp fluorescence (excitation 295 nm, 25 C) of UCP in POPC liposomes titrated with SDS (0-83.9 mM); maximum intensity against [SDS], Hill fit; Ka1/2 low SDS range (0-10 mM): tetramer to tight dimers; Kb1/2 high SDS range (10-100 mM): tight dimers to loose dimers and monomers

Row | Protein | Fl Ka1/2 (first transition, tetramer to dimers, [SDS]) [mM SDS] | Fl Kb1/2 (second transition, dimers to loose dimers and monomers, [SDS]) [mM SDS]
10 | B1 | 0.6 ± 0.1 | 9.8 ± 0.3
11 | B2 | 0.61 ± 0.1 | 7.1 ± 0.3
12 | B3 | 0.6 ± 0.1 | 8.9 ± 0.2
